Reference: patent publication US20260265347A1

Molecular target: biotinylated VP1 pentamer of BKV genotype I (BK virus genotype I) (UniProt P03088)
Experiment: BLI, biotinylated VP1 pentamer on streptavidin sensor, mAb 0 to 40 nM

## MTX005 from Memo Therapeutics AG (referred as 319C07 in WO2021/250097) (antibody)
  Kd: 17.9 nM
